Experimental data as given in patent US7285380B2, “Methods of producing polyketide synthase mutants and compositions and uses thereof” (The Salk Institute for Biological Studies, priority 2000, dated 2007).
Substitutions are numbered along the chain they refer to. Names and notes keep the numbering of the source. “Also recorded” adds a separate entry of the source. Values belong to the molecule of their own block, whether it stands above or below them.

Experiments:
[1] = target: 2-Pyrone synthase (2-PS) from Gerbera hybrida (Gerbera hybrida); test: X-ray crystal structure, homodimer interface
[2] = test system: CHS; details: cited from earlier work
[3] = Malonyl-CoA decarboxylation by C164S mutant (crystallographic and functional assay); type: biochemical
From the text: Asn336 appears to play a crucial role in the decarboxylation reaction. […] In the hexanoyl-CoA complex, the side chain amide of Asn336 provides a hydrogen bond to the carbonyl oxygen of the thioester. This interaction would stabilize the enolate anion resulting from decarboxylation of malonyl-CoA (see FIG. 6). At the same time, the lack of formal positive charge at Asn336 may preserve the partial carbanion character of this resonance-stabilized anion, and thus the nucleophilicity of the carbanion form.

[4] = 14C malonyl-CoA assay of CHS mutants, products analysed by TLC and autoradiography (naringenin vs resveratrol); type: biochemical; details: TLC autoradiography
From the text: Wild type CHS produces chalcone, which spontaneously converts to naringenin, the position of which is indicated by the arrow on the left. Wild type STS produces resveratrol, the position of which is indicated by the arrow of the right. Function conversion of CHS to STS (i.e., the production of the alternate product from the same intermediate) results in diminished production of naringenin and increased production of resveratrol. Various mutants of CHS produce varying degrees of resveratrol, showing that CHS activity can be altered to STS-like activity to different extents by different mutations.
Mutant CHS (SEQ ID NO: 1) has altered activity based on assays conducted with ^14C malonyl-CoA. Products were extracted with ethyl acetate and analyzed by silica gel thin layer chromatography (TLC) and visualized by autoradiography.

[5] = Activity and kinetics of 18xCHS / 8xCHS compared with wild type CHS and STS; type: biochemical; details: listed as 8×CHS

surface area buried per monomer by the dimerization surface [1]: 1800 Å^2
Molecule: 2-Pyrone synthase (2-PS) from Gerbera hybrida (enzyme)

Molecule: C/C=C/C/C=C/CCC(=O)[C@H]1O[C@H]1C(N)=O [Cerulenin]
inhibition of CHS [2]: potent irreversible inhibitor of CHS
inactivation of CHS after preincubation with substrate ([2]; preincubation with coumaroyl-CoA or malonyl-CoA): Preincubation of CHS with coumaroyl-CoA prevents inactivation by cerulenin, but pre-incubation with malonyl-CoA does not

B1: C164S: alfalfa CHS C164S mutant (protein, listed as Medicago sativa)
chain: MVSVSEIRKAQRAEGPATILAIGTANPANCVEQSTYPDFYFKITNSEHKTELKEKFQRMCDKSMIKRRYMYLTEEILKENPNVCEYMAPSLDARQDMVVVEVPRLGKEAAVKAIKEWGQPKSKITHLIVCTTSGVDMPGADYQLTKLLGLRPYVKRYMMYQQGSFAGGTVLRLAKDLAENNKGARVLVVCSEVTAVTFRGPSDTHLDSLVGQALFGDGAAALIVGSDPVPEIEKPIFEMVWTAQTIAPDSEGAIDGHLREAGLTFHLLKDVPGIVSKNITKALVEAFEPLGISDYNSIFWIAHPGGPAILDQVEQKLALKPEKMNATREVLSEYGNMSSACVLFILDEMRKKSTQNGLKTTGEGLEWGVLFGFGPGLTIETVVLRSVAI
catalytic / decarboxylation activity on malonyl-CoA [3]: retains decarboxylation activity; also recorded: retains limited catalytic activity; also recorded: produces acetyl-CoA

B2: 16B: alfalfa CHS mutant: V98L, T131S, S133T, G134T, V135P, M137L, M158G, Y160F (protein, UniProt P30074 1-389, looked up, variant V98L T131S S133T G134T V135P M137L M158G Y160F)
Chalcone synthase 2: B1 chain with V98L, T131S, S133T, G134T, V135P, M137L, M158G, Y160F, S164C
naringenin amount [4]: reduced amounts of naringenin compared to wild type CHS
resveratrol amount [4]: various amounts of resveratrol
activity and kinetics compared with STS [5]: activity that is similar to the 18×CHS mutant

B3: A4: alfalfa CHS mutant: A4 (L268K, K269G, D270A, G273D) (protein, UniProt P30074 1-389, looked up, variant L268K K269G D270A G273D)
Chalcone synthase 2: B1 chain with S164C, L268K, K269G, D270A, G273D
product profile (naringenin or chalcone versus resveratrol), cyclization specificity [4]: no effect on cyclization specificity

B4: 4B: alfalfa CHS mutant: A1 (four), A2 (five), A3 (M158G, Y160F), A4 (K269G) (protein, UniProt P30074 1-389, looked up, variant D96A V98L V99A V100M T131S S133T G134T V135P M137L M158G Y160F K269G)
Chalcone synthase 2: MVSVSEIRKAQRAEGPATILAIGTANPANCVEQSTYPDFYFKITNSEHKTELKEKFQRMCDKSMIKRRYMYLTEEILKENPNVCEYMAPSLDARQAMLAMEVPRLGKEAAVKAIKEWGQPKSKITHLIVCSTTTPDLPGADYQLTKLLGLRPYVKRYGMFQQGCFAGGTVLRLAKDLAENNKGARVLVVCSEVTAVTFRGPSDTHLDSLVGQALFGDGAAALIVGSDPVPEIEKPIFEMVWTAQTIAPDSEGAIDGHLREAGLTFHLLGDVPGIVSKNITKALVEAFEPLGISDYNSIFWIAHPGGPAILDQVEQKLALKPEKMNATREVLSEYGNMSSACVLFILDEMRKKSTQNGLKTTGEGLEWGVLFGFGPGLTIETVVLRSVAI
naringenin amount [4]: reduced amounts of naringenin compared to wild type CHS
resveratrol amount [4]: various amounts of resveratrol
